Reference: the RNAGym collection of RNA variant scans (doi:10.7554/elife.90254)

B1: LINE1-mini (parent)
chain: GGCAGAGCUCAACACAGCGUGGCAAAGUGGCUGUGGCUAGACUGCC

Variants of: B1
Assay: self-cleavage, relative activity (ratio to wild type); higher = more cleavage; in vitro, sequencing; the parent is a self-cleaving ribozyme

Variant | self-cleavage
AGCAGAGCUCAACACAGCGUGGCAAAGUGGCUGUGCCUAGACUGCC [G1A G36C] | 0.11
AGCAGAGCUCAACACAGCGUGGCAAAGUGGCUGUGGCUAGACUCCC [G1A G44C] | 0.47
AGCAGAGCUCAACACAGCGUGGCAAAGUGGCUGUGGCUAGACUACC [G1A G44A] | 0.28
AGCAGAGCUCAACACAGCGUGGCAAAGUUGCUGUGGCUAGACUGCC [G1A G29U] | 1.1
AGCAGAGCUCAACACAGCGUGGCAAAGUAGCUGUGGCUAGACUGCC [G1A G29A] | 0.63
AGCAGAGCUCAACACAGCGUGGCAAAGUCGCUGUGGCUAGACUGCC [G1A G29C] | 0.28
AGCAGAGCUCAACACAGCGUGGCAAAGUGGCUGUCGCUAGACUGCC [G1A G35C] | 0.1
AGCAGAGCUCAACACAGCGUGGCAAAGUGGCUGUUGCUAGACUGCC [G1A G35U] | 0.17
AGCAGAGCUCAACACAGCGUGGCAAAGUGGCUGUAGCUAGACUGCC [G1A G35A] | 0.2
AGCAGAGCUCAACACAGCGUGGCAAAGUGGGUGUGGCUAGACUGCC [G1A C31G] | 0.11
AGCAGAGCUCAACACAGCGUGGCAAAGUGGAUGUGGCUAGACUGCC [G1A C31A] | 0.12
AGCAGAGCUCAACACAGCGUGGCAAAGUGGUUGUGGCUAGACUGCC [G1A C31U] | 0.32
AGCAGAGCUCAACACAGCGUGGCAAAGUGGCUGUGGCUCGACUGCC [G1A A39C] | 0.14
AGCAGAGCUCAACACAGCGUGGCAAAGUGGCUGUGGCUGGACUGCC [G1A A39G] | 0.12
AGCAGAGCUCAACACAGCGUGGCAAAGUGGCUGUGGCUUGACUGCC [G1A A39U] | 1.46
AGCAGAGCUCAACACGGCGUGGCAAAGUGGCUGUGGCUAGACUGCC [G1A A16G] | 0.25
AGCAGAGCUCAACACCGCGUGGCAAAGUGGCUGUGGCUAGACUGCC [G1A A16C] | 0.11
AGCAGAGCUCAACACUGCGUGGCAAAGUGGCUGUGGCUAGACUGCC [G1A A16U] | 0.1
AGCAGAGCUCAACACAGCGUGGCAAAGUGCCUGUGGCUAGACUGCC [G1A G30C] | 1.51

Variant | self-cleavage
AGCAGAGCUCAACACAGCGUGGCAAAGUGACUGUGGCUAGACUGCC [G1A G30A] | 0.85
AGCAGAGCUCAACACAGCGUGGCAAAGUGUCUGUGGCUAGACUGCC [G1A G30U] | 1.59
AGCAGAGCUCAACACAGGGUGGCAAAGUGGCUGUGGCUAGACUGCC [G1A C18G] | 0.38
AGCAGAGCUCAACACAGUGUGGCAAAGUGGCUGUGGCUAGACUGCC [G1A C18U] | 0.94
AGCAGAGCUCAACACAGAGUGGCAAAGUGGCUGUGGCUAGACUGCC [G1A C18A] | 1.81
AGUAGAGCUCAACACAGCGUGGCAAAGUGGCUGUGGCUAGACUGCC [G1A C3U] | 0.47
AGGAGAGCUCAACACAGCGUGGCAAAGUGGCUGUGGCUAGACUGCC [G1A C3G] | 0.56
ACCAGAGCUCAACACAGCGUGGCAAAGUGGCUGUGGCUAGACUGCC [G1A G2C] | 0.24
AACAGAGCUCAACACAGCGUGGCAAAGUGGCUGUGGCUAGACUGCC [G1A G2A] | 1.83
AUCAGAGCUCAACACAGCGUGGCAAAGUGGCUGUGGCUAGACUGCC [G1A G2U] | 0.47
AGCAGAGCUCAACACAGCGUGGCAAAGUGGCUGUGGAUAGACUGCC [G1A C37A] | 0.07
AGCAGAGCUCAACACAGCGUGGCAAAGUGGCUGUGGUUAGACUGCC [G1A C37U] | 0.08
AGCAGAGCUCAACACAGCGUGGCAAAGUGGCUGUGGGUAGACUGCC [G1A C37G] | 0.04
AGCAGAGCUCAACACAGCGUGGCAGAGUGGCUGUGGCUAGACUGCC [G1A A25G] | 0.39
AGCAGAGCUCAACACAGCGUGGCAUAGUGGCUGUGGCUAGACUGCC [G1A A25U] | 1.09
AGCAGAGCUCAACACAGCGUGGCACAGUGGCUGUGGCUAGACUGCC [G1A A25C] | 1.36
AGCAGAGCUCAACACAGCGUCGCAAAGUGGCUGUGGCUAGACUGCC [G1A G21C] | 2.09
AGCAGAGCUCAACACAGCGUUGCAAAGUGGCUGUGGCUAGACUGCC [G1A G21U] | 1.38
AGCAGAGCUCAACACAGCGUAGCAAAGUGGCUGUGGCUAGACUGCC [G1A G21A] | 1.86

Variant | self-cleavage
AGCAAAGCUCAACACAGCGUGGCAAAGUGGCUGUGGCUAGACUGCC [G1A G5A] | 0.2
AGCACAGCUCAACACAGCGUGGCAAAGUGGCUGUGGCUAGACUGCC [G1A G5C] | 0.08
AGCAUAGCUCAACACAGCGUGGCAAAGUGGCUGUGGCUAGACUGCC [G1A G5U] | 0.08
AGCAGAGCUCAACACAGCGUGGCAAAGUGGCUGUGGCUAGACUGAC [G1A C45A] | 0.82
AGCAGAGCUCAACACAGCGUGGCAAAGUGGCUGUGGCUAGACUGGC [G1A C45G] | 0.34
AGCAGAGCUCAACACAGCGUGGCAAAGUGGCUGUGGCUAGACUGUC [G1A C45U] | 1.19
AGCUGAGCUCAACACAGCGUGGCAAAGUGGCUGUGGCUAGACUGCC [G1A A4U] | 0.27
AGCGGAGCUCAACACAGCGUGGCAAAGUGGCUGUGGCUAGACUGCC [G1A A4G] | 0.31
AGCCGAGCUCAACACAGCGUGGCAAAGUGGCUGUGGCUAGACUGCC [G1A A4C] | 0.08
AGCAGAGCUCAACACAGCGUGGAAAAGUGGCUGUGGCUAGACUGCC [G1A C23A] | 0.95
AGCAGAGCUCAACACAGCGUGGUAAAGUGGCUGUGGCUAGACUGCC [G1A C23U] | 1.29
AGCAGAGCUCAACACAGCGUGGGAAAGUGGCUGUGGCUAGACUGCC [G1A C23G] | 0.53
AGCAGAGCUCAACACAGCGUGCCAAAGUGGCUGUGGCUAGACUGCC [G1A G22C] | 1.94
AGCAGAGCUCAACACAGCGUGACAAAGUGGCUGUGGCUAGACUGCC [G1A G22A] | 0.94
AGCAGAGCUCAACACAGCGUGGCAAAGUGGCUGUGGCUAGACUGCC [G1A] | 1.11
AGCAGAGCUCAACACAGCGUGGCAAAGUGGCUGUGGCUAGCCUGCC [G1A A41C] | 0.09
AGCAGAGCUCAACACAGCGUGGCAAAGUGGCUGUGGCUAGUCUGCC [G1A A41U] | 0.97
AGCAGAGCUCAACACAGCGUGGCAAAGUGGCUGUGGCUAGGCUGCC [G1A A41G] | 0.26
